Substrate in series [1]: N[C@@H](Cc1[nH]cnc1S)C(=O)O
As to the kind of experiment: purified protein. To be noted: 500 μM acetyl-CoA, 0.2 μM enzyme; phosphate pH 8.0, 20 mM NaCl, 2 mM TCEP, 26 °C (buffer and temperature from the activity assay); pH 8.0; 26.0 °C. The series is classed as biochemical, Proteiniphilum saccharofermentans.

Substrate in series [2]: CC(=O)SCCNC(=O)CCNC(=O)[C@H](O)C(C)(C)COP(=O)(O)OP(=O)(O)OC[C@H]1O[C@@H](n2cnc3c(N)ncnc32)[C@H](O)[C@@H]1OP(=O)(O)O
The experiment in a line: purified protein. The series is classed as biochemical, Proteiniphilum saccharofermentans. To be noted: 1000 μM 5-thiohistidine; otherwise same.

B1: 5THNAT (Proteiniphilum saccharofermentans) (protein)
chain: MYLVSGSSLFYGWFKKNMDSIKGTVEIYDLDEYNYPKFRGQLIGLYLHAFTTGDYSQHIDRETVEVTLDDILQDGSGCMAFVGNRLVGLLAAFPLKRDPDFPADTCRDIPVGEAIYIAEVMVHADYRGRRIASKMLNTYLQEKSENYSYAVIRVWEKNMPALELYKKLGFLPVATISQQKLSANKEEFVMNKLYLAVKIIDN
notes: recombinant, produced in Escherichia coli, Ni-NTA purified (tag details not in main text)
Usually Km stands for the substrate concentration at which the rate is half of its maximum. On to B1, for which the Km was found to be 58 µM in “purified protein [1]” and 73 µM in the series “purified protein [2]”.

The record behind these values is PMC12631010, “5‐Thiohistidine N‐Acetyltransferase from Proteiniphilum Saccharofermentans” (Chembiochem, 2025).
